B1: library; numbered along this chain (parent)
chain: MRKPRAAVGSGHRKQAASQEGRQKHAKNNSQAKPSACDGLARQPEEVVLQASVSSYHLFRDVAEVTAFRGSLLSWYDQEKRDLPWRRRAEDEMDLDRRAYAVWVSEVMLQQTQVATVINYYTGWMQKWPTLQDLASASLEEVNQLWAGLGYYSRGRRLQEGARKVVEELGGHMPRTAETLQQLLPGVGRYTAGAIASIAFGQATGVVDGNVARVLCRVRAIGADPSSTLVSQQLWGLAQQLVDPARPGDFNQAAMELGATVCTPQRPLCSQCPVESLCRARQRVEQEQLLASGSLSGSPDVEECAPNTGQCHLCLPPSEPWDQTLGVVNFPRKASRKPPREESSATCVLEQPGALGAQILLVQRPNSGLLAGLWEFPSVTWEPSEQLQRKALLQELQRWAGPLPATHLRHLGEVVHTFSHIKLTYQVYGLALEGQTPVTTVPPGARWLTQEEFHTAAVSTAMKKVFRVYQGQQPGTCMGSKRSQVSSPCSRKKPRMGQQVLDNFFRSHISTDAHSLNSAAQ

Variants of: B1
Experiment: 8OG:A repair function score (normalized; synonymous = 0, nonsense = -1) (normalized log-likelihood score); higher = more repair activity (WT-like)
Conditions: with 8OG:A DNA repair reporter (GFP) in HEK-293 MUTYH KO cells
In short: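 Lentiviral MUTYH cDNA NNN codon-scan libraries in HEK-293 MUTYH knockout cells (10 pg/ml doxycycline) were co-transfected with an 8OG:A GFP repair reporter plus mCherry. At 72 h, viable mCherry+ cells were sorted into GFP+ (repair) and GFP− bins, three replicates per tile, then tile amplicons were sequenced. Per-tile Rosace fitness scores became a normalized repair function score anchored on synonymous and nonsense distributions. Synonymous medians were set to 0 and nonsense to -1; variants under 300 counts per million at the start were removed.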

| Variant | 8OG:A repair function score |
| --- | --- |
| T436M | 0.186 |
| R189L | -0.316 |
| T424G | -0.293 |
| R364N | -0.633 |
| R42S | 0.0235 |
| K3T | 0.144 |
| K3S | -0.0766 |
| P442Y | -0.28 |
| T260K | -0.0184 |
| T260I | -0.0181 |
| V301W | -0.211 |
| V301E | -0.439 |
| R336G | -0.112 |
| D208N | -0.984 |
| V206C | -0.0127 |
| H416D | -0.403 |
| S292P | -0.0306 |
| L49V | -0.0831 |
| E64H | -0.0871 |
| I198T | -0.36 |
| I198P | -0.841 |

| Variant | 8OG:A repair function score |
| --- | --- |
| Y151G | -1.03 |
| G155A | 0.037 |
| T511K | -0.00393 |
| T511W | -0.0217 |
| W128L | -0.0988 |
| T308I | -0.0904 |
| T308D | -0.0467 |
| V427M | -0.599 |
| A63H | -0.0822 |
| A519Y | 0.0154 |
| A519G | -0.00167 |
| A456P | -0.814 |
| L268C | -0.13 |
| A147Q | 0.00492 |
| A147G | -0.174 |
| P267H | -0.87 |
| P267T | -0.202 |
| S276C | -0.133 |
| M93R | 0.00556 |
| Q473S | 0.00408 |
| Y428N | -1.01 |

| Variant | 8OG:A repair function score |
| --- | --- |
| Y428D | -1.09 |
| I421G | -0.609 |
| I421A | -0.443 |
| I421C | -0.3 |
| G297V | 0.0126 |
| G429T | -0.219 |
| G429F | 0.209 |
| A101K | -0.0477 |
| A101F | -0.00851 |
| A245Y | -0.107 |
| Y190N | -0.443 |
| Y190M | -0.762 |
| D94V | -0.128 |
| D94P | -0.157 |
| G401E | 0.191 |
| R506T | 0.0259 |
| V274N | -0.714 |
| T406N | 0.0152 |
| A457R | -0.672 |
| G39E | 0.0199 |
| A357Y | -0.118 |

| Variant | 8OG:A repair function score |
| --- | --- |
| S518H | -0.0153 |
| D91P | -0.0949 |
| D91T | -0.0112 |
| A36P | 0.00994 |
| E168T | -0.0102 |
| E168G | -0.24 |
| E168N | 0.0349 |
| Q472V | 0.00907 |
| Q472S | 0.0274 |
| Q472T | -0.00129 |
| L180C | -0.258 |
| G372I | -0.775 |
| G372S | -0.15 |
| Q113T | 0.157 |
| R86Y | -1.03 |
| H312E | 0.0205 |
| L361F | -0.49 |
| T122Y | -0.13 |
| Y56S | -0.0461 |
| I118A | -0.0372 |
